Laboratory results as given in patent publication EP4659811A1 (Université de Strasbourg, dated 2025).
Numbering of substitutions follows the chain as printed.

B1: antibody B5P4 (antibody, V domains shown)
VH: QVQLVQSGAEVKKPGSSVKVSCKASGGRFSRYGSSWVRQAPGQGLEWMGGIIPLLGTANYAQKFQDRVSITADESTSTVYMHLSSLRSEDTAVYYCATARREYDRPGAEYFIQWGQGTLVTVSS
VL: EIVMTQSPATLSVSPGERATLSCRASQSVSTNLAWYQQKPGQAPRLLIYDAFLRATGIPARFSGSGSGTEFTLTISSLQPEDFAVYYCQQYNYWPPLTFGGGTKVEIK
B2: antibody B9P4 (antibody, V domains shown)
VH: EVQLVESGGGVVQPGRSLRLSCAASGFTFSSYGMHWVRQAPGKGLEWVAVISKDGSNKYEADFVKGRFTISRDNSKNTLYLQMNSLRAEDTAVYYCAKIPLRRYSDSGDYSSGDFWGQGTLVTVSS
VL: DVVMTQSPLSLTVTLGQPASISCRSSENLVYSDGNTYLSWFQQRPGQSPRRLIYKVSTRDSGVPDRFSGSGSGTDFTLKISRVEAEDVGVYYCMQTTHWPPLTFGGGTKVEIK
B3: antibody G8P7 (antibody, V domains shown)
VH: QLQLQESGPGLVQPSETLSLTCTVSGGYISTSSYYWGWIRQPPGKGLEWIGSIEYSGSTYYNPSLKSRVTISVDTSKNQFSLKLSSVTAADTAVYYCASANSKYYDSGGYYAPGALDLWGQGTMVTVSS
VL: EIVMTQSPATLSVSPGERATLSCRASQSVSSHLAWYQHKRGQAPRLLIYAASSRATGIPARFSGRGSGTEFTLTISSLQSEDFAVYYCQQYNNWPPGYSFGQGTKLEIK
B4: antibody G7P7 (antibody, V domains shown)
VH: QVQLQESGPGLVRPSQTLSLTCTVSGGSMTSGSYYWSWIRQPAEKGLEWIGRIYTSGRTDYNPSLKSRVAMSIDTSKNQFSLRLTSVTAADTAVYYCARWGDSSAYYYVGDPWGRGTPVTVSS
VL: DIQMTQSPSSLSASIGDRVTITCRASQNINTYLYWYQQKPGKAPQLLIYAASNLQTGAPSRFSGSGSGTDFTLTISSLQPADFATYYCQQSFSLPHTFGQGTKLEIK
B5: antibody B8P7 (antibody, V domains shown)
VH: QVQLQESGPGLVRPSETLSLTCTVSGGSISPYYWNWIRQPPGKGLEWIGYIYYSGNTKYNPSLKSRVTISVDTSKNQFSLKLSSVSAADTAVYYCARDSCSGTCYLGDNWFDPWGQGTLVTVSS
VL: QSVLTQPPSVSGAPGQRVTISCTGSSSNIGANNDVHWYQHLPGTAPKLLIYGNNHRPSGVPDRFSGSKSGTSASLAITGLQAEDEADYYCQSYDSSLSTSKVFGGGTKLTVL
B6: antibody C4P6 (antibody, V domains shown)
VH: B5 VH with D108G
VL: B5 VL
B7: antibody G6P7 (antibody, V domains shown)
VH: B5 VH
VL: B5 VL with S9P
B8: antibody E5P6 (antibody, V domains shown)
VH: EVQLVESGGGVVQPGRSLRLSCAASGFIFNNHGMHWVRQAPGKGLEWVAGISYDGKKEYYIGSVKGRFTISRDNSRNTLYLHMNGLRPEDTAVYYCAKEAYGSGSPCDYWGQGTLVTVSS
VL: EIVLTQSPGTLSLSPGERATLSCRASQRVSSNYLAWYQQKPGQAPRLLIYGASSRATGIPDRFSGSGSGTDFTLTISRLEPEDFAVYYCQQYGTSPRSFGRGTKLEIK
B9: antibody C9P1 (antibody, V domains shown)
VH: EVQLLESGGGLVQPGGSLRLSCVTSGFTFSSYSMTWVRQAPGKGLEWVSYISSSSRTISYADSVQGRFTISRDNAKNVLYLQMNSLRAEDTAVYYCARQAVAHFDYWGQGTLVTVSS
VL: B8 VL with R101Q, L105V
B10: antibody C11P1 (antibody, V domains shown)
VH: QVQLQESGPGLVKPSETLSLTCTVSGGSIRNSYWSWIRQPPGKGLEWIGYIYYTGTTNSNPSLKSRATISVHMSQNQISLKLNSVTPADTAVYYCAQGGGSGDLHYWGQGTLVTVSS
VL: NFMLTQPASVSGSPGQSITISCTGTRSDVGGYNYVSWYQQHPGKAPKLMIYDISSRPSGVSNRFSASKSGNTASLTISGLQAEDEADYYCISFATGYTWVFGGGTRLTVL
B11: antibody B2P8 (antibody, V domains shown)
VH: B10 VH with A67V
VL: EIVLTQSPDTLSLSPGARATLSCRASQSVRSNYLAWYQQKPGQAPRLLIYGASSRATAIPDRFSGSGSGTDFTLTITRLEPEDFAVYYCHQYASSPRTFGQGTKVEIK
B12: antibody E7P5 (antibody, V domains shown)
VH: B10 VH with P40S, T56S, A67L, I69V
VL: B10 VL with N1Q, F2S, M3A, M49I, R106S
B13: antibody G5P1 (antibody, V domains shown)
VH: B10 VH with E16G, A67V, Q75R
VL: B10 VL
B14: antibody E2P6 (antibody, V domains shown)
VH: EVQLVESGGGLIQPGGSLRLSCAASGFTVSTNCMSWVRQAPGTGLEWVSVIYSGGTTYYADSVKGRFTISRDNSRNTLYLQMNGLRAEDTAVYYCARSVDTYDIYALDVWGQGTTVTVSS
VL: DIQMTQSPSTLSASVGDRVTITCRASQSISRWLAWYQQKPGKAPKLLIYKASGLHSGAPSRFSGSGSGTEFTLTISGLQPDDFATYFCQQYNSYPWTFGQGTKVEIK

How the values were obtained:
[1] = target: T1, VP1 pentamer of BKV genotype II (recombinant) (BK virus genotype II, UniProt P14996 30-300); test: ELISA, coated VP1 pentamer
T1 construct: also called GII; VP1 geno II pentamer; not shown: N-terminal His-tag of pESPRIT002; C-terminal biotin acceptor peptide (BAP) of pESPRIT002

[2] = target: T2, VP1 pentamer of BKV genotype IV (recombinant) (BK virus genotype IV, UniProt P14996 30-300); test: ELISA, coated VP1 pentamer
T2 construct: also called GIV; VP1 BKV subtype IV; not shown: N-terminal His-tag of pESPRIT002; C-terminal biotin acceptor peptide (BAP) of pESPRIT002

[3] = target: VP1 capsid protein on BKV pseudovirions of genotype IVc2 (A-66H; AB369093) (BK virus genotype IVc2 (A-66H)); test: cell-based or functional assay
[4] = target: VP1 capsid protein on BKV pseudovirions of genotype II (GBR-12; AB263920) (BK virus genotype II (GBR-12)); test: cell-based or functional assay
[5] = target: VP1 capsid protein on BKV pseudovirions of genotype Ia (BK-D; JF894228) (BK virus genotype Ia (BK-D)); test: cell-based or functional assay

Binder	binding result [1]	binding result [2]	Neutralization PSV IC50 [3] [µg/mL]	Neutralization PSV IC50 [4] [µg/mL]	Neutralization PSV IC50 [5] [µg/mL]	EC50 [1] [µg/mL]	EC50 [2] [µg/mL]
B1	no binding (tested: starting at 50 µg/mL)	no binding (tested: starting at 50 µg/mL)	> 50	> 50	> 3.12	–	–
B2	–	–	> 50	16.3	4.96	≥ 7	≥ 10
B3	–	–	> 50	21.3	> 50	25	5
B4	–	–	0.0036	0.0007	12.5	0.06	0.04
B5	–	–	0.164	0.0004	0.0019	0.04	3
B6	–	–	0.726	0.103	0.32	2.5	2.25
B7	–	–	0.883	0.0041	0.0038	0.2	2.5
B8	–	–	> 50	> 50	> 50	6	5
B9	no binding (tested: starting at 50 µg/mL)	no binding (tested: starting at 50 µg/mL)	> 50	> 50	> 50	–	–
B10	–	–	0.0942	0.0015	0.351	0.045	0.22
B11	–	–	> 50	> 50	> 50	5	12
B12	–	–	0.0056	0.0002	0.0719	0.055	0.08
B13	–	–	0.108	0.0016	0.538	0.07	2.5
B14	–	–	> 50	> 50	> 50	0.14	0.6
